Measured values as given in US7049395 (YALE UNIVERSITY, dated 2006).
Each block holds one binder with its values, some of them ahead of it.

B4: NEMO-(197-419) (other, human, UniProt Q9Y6K9 197-419, looked up)
chain: VQVDQLRMQGQSVEAALRMERQAASEEKRKLAQLQVAYHQLFQEYDNHIKSSVVGSERKRGMQLEDLKQQLQQAEEALVAKQEVIDKLKEEAEQHKIVMETVPVLKAQADIYKADFQAERQAREKLAEKKELLQEQLEQLQREYSKLKASCQESARIEDMRKRHVEVSQAPLPPAPAYLSSPLALPSQRRSPPEEPPDFCCPKCQYQAPDMDTLQIHVMECIE
notes: range 197-419; [35S]-labelled in vitro translated; also transfected in COS or HEK293 cells

Legend:
GST alone [1] = molecular target: T1, GST alone (UniProt P08515 1-218 = GST); test: GST pull-down of in vitro translated protein
T1 construct: control bait in the GST pull-downs

NEMO-(197-419) = molecular target: B4; test: GST pull-down with GST-IKKβ-(644-756)
Source text: (§1) Equal amounts of each protein were used for subsequent GST pull-down analyses.

NEMO-(86-419) = molecular target: T2, NEMO-(86-419) (human, UniProt Q9Y6K9 86-419); test: GST pull-down with GST-IKKβ-(644-756)
T2 construct: range 86-419; [35S]-labelled in vitro translated; also transfected in COS or HEK293 cells
Source text: as §1

GST alone [2] = molecular target: T1, GST alone; test: GST pull-down of [35S]-labelled NEMO truncations
Source text: as §1

FLAG-tagged IKKβ = molecular target: T3, FLAG-tagged IKKβ (human, UniProt O14920 1-756); test: co-immunoprecipitation from transfected COS or HEK293 cells
T3 construct: expressed in transfected COS, HEK293 or HeLa cells; also called IKKβ-FLAG; FLAG-IKKβ
T3 sequence (looked up): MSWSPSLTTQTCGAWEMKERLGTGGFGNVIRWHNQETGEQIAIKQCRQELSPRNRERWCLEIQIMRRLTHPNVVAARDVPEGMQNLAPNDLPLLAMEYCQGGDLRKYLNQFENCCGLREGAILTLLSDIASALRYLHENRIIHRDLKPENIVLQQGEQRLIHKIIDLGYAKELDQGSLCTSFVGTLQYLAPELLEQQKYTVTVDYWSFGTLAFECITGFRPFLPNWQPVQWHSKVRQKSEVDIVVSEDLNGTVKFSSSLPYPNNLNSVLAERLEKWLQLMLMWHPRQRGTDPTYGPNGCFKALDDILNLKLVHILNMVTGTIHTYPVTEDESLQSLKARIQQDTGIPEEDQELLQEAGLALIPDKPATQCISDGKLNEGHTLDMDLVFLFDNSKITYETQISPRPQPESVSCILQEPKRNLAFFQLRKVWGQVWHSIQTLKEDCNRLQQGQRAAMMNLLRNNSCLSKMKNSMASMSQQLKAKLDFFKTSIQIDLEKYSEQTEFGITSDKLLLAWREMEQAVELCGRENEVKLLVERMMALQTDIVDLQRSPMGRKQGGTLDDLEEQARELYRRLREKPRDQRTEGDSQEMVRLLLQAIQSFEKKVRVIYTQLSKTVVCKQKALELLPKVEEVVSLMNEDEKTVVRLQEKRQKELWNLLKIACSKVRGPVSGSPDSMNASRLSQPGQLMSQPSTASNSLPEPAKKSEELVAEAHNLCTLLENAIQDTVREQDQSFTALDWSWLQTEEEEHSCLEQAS
Experimental: For all immunoprecipitations HeLa or COS cells grown in six well trays were lysed in 500 µl TNT. FLAG-tagged proteins were precipitated from lysate of transfected cells for two hours at 4° C. using 20 µl of anti-FLAG (M2)-conjugated agarose beads (Sigma). […] For immunoblotting, precipitates were washed three times with TNT, twice with PBS then suspended in SDS-sample buffer. Proteins were separated by SDS-PAGE (10%), transferred to PVDF membranes and visualized by enhanced chemiluminesence (Amersham-Pharmacia).

T1 sequence (P08515 whole entry): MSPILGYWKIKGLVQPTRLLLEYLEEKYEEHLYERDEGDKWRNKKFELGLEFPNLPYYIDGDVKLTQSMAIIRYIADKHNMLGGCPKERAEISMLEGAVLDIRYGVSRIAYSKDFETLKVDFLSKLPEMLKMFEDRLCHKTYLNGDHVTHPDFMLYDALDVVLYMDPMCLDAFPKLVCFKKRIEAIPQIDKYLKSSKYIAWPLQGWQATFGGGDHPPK

- binding result (GST alone [1]): no binding
B1: IKKβ-(644-756) (enzyme, human, UniProt O14920 644-756, looked up)
chain: VRLQEKRQKELWNLLKIACSKVRGPVSGSPDSMNASRLSQPGQLMSQPSTASNSLPEPAKKSEELVAEAHNLCTLLENAIQDTVREQDQSFTALDWSWLQTEEEEHSCLEQAS

- binding result (NEMO-(197-419)): no binding
- binding result (NEMO-(86-419)): no binding
B2: GST-IKKβ-(644-756) (other, human, UniProt O14920 644-756, looked up)
chain: VRLQEKRQKELWNLLKIACSKVRGPVSGSPDSMNASRLSQPGQLMSQPSTASNSLPEPAKKSEELVAEAHNLCTLLENAIQDTVREQDQSFTALDWSWLQTEEEEHSCLEQAS
notes: bacterially expressed; not shown: glutathione S-transferase (GST) as encoded by vector pGEX-4T1 (Pharmacia)

- binding result (GST alone [2]): no binding
B3: NEMO-(1-196) (other, human, UniProt Q9Y6K9 1-196, looked up)
chain: MNRHLWKSQLCEMVQPSGGPAADQDVLGEESPLGKPAMLHLPSEQGAPETLQRCLEENQELRDAIRQSNQILRERCEELLHFQASQREEKEFLMCKFQEARKLVERLGLEKLDLKRQKEQALREVEHLKRCQQQMAEDKASVKAQVTSLLGELQESQSRLEAATKECQALEGRARAASEQARQLESEREALQQQHS
notes: [35S]-labelled in vitro translated; also transfected in COS or HEK293 cells

Binder: B4
- binding result (FLAG-tagged IKKβ): no binding
